Source: patent US20220133761A1, “NEUTROPHIL APOPTOSIS INDUCED BY NANOPARTICLES FOR TREATING INFLAMMATORY DISEASES” (WASHINGTON STATE UNIVERSITY, priority 2020, published 2022)

Experiments:
[1] = tested on: LPS-challenged mice; assay: Therapeutic efficacy in sepsis mouse model (neutrophils, cytokines, MPO in blood, BALF, organs); type: in vivo
Description: Adult CD-1 mice were i.p. administrated with LPS (50 mg/kg). 4 hours later, the mice were grouped randomly (10 mice per group) and i.v. injected with PBS, free DOX and DOX-hyd-BSA NPs (equal to 0.2 mg kg^−1 of free DOX), respectively. The healthy mice were used as […]. At predetermined time points (16 h and 72 h after LPS challenge), mouse BALF, blood and major organs were collected. Cell number and inflammatory factors (TNF-α, IL-6 and IL-1β) in BALF were determined by hemocytometer and ELISA, respectively as aforementioned. Blood was collected as described above. The plasma was harvested for ELISA assay after the blood was centrifuged at 1500 g for 20 min. Cell number was counted as above. The organs were homogenized with PBS (100 mg/mL) to obtain the pipettable homogenate for myeloperoxidase (MPO) activity and ELISA assay.

[2] = tested on: differentiated HL60 cells; assay: Uptake of DOX-hyd-BSA NPs by differentiated HL60 cells; type: cell-based, human; conditions: 10^6 cells/mL, 2 h at different DOX concentrations; time course at 30 μg/mL DOX
Description: FIG. 5C and FIG. 5D show resultant uptake data of the present application, wherein DOX-hyd-BSA NPs by differentiated HL60 cells were evaluated in vitro.

[3] = tested on: human neutrophils; assay: Uptake of nanoparticles by human neutrophils in vitro (flow cytometry); type: cell-based; conditions: 30 ug/ml, 2 h
Description: FIG. 15 show novel data of uptake of DOX-hdy-BSA NPs by human neutrophils. Human neutrophils were incubated with DOX-hyd-BSA NPs (the concentration at 30 ug/ml) for 2 h, and then the cells were washed, and they were analyzed by flowcytometry.
It is also to be noted that the methods herein also pertain to making human albumin nanoparticles similar to BSA NPs. […] Human neutrophils were incubated with DOX-hyd-BSA NPs (the concentration at 30 ug/ml) for 2 h, and then the cells were washed and analyzed by flowcytometry.

[4] = tested on: heart, liver, spleen, lung and kidney; assay: Toxicity by histological analysis (H&E staining of major organs); conditions: 0.2 mg/kg DOX
Description: After different treatments (healthy, PBS, 4 mg/kg of free DOX, 0.2 mg/kg of free DOX, DOX-hyd-BSA NPs and DOX-ab-BSA NPs, equal to 0.2 mg/kg of DOX for NPs), mice were sacrificed by carbon dioxide asphyxiation. […] The samples were imaged by a microscope (ZEISS, Observer. Z1, USA).

[5] = Serum stability of nanoparticles in PBS with 20% FBS; type: physicochemical; conditions: pH 7.4, incubation for 4 days
Description: Particle size and polydispersity indexes (PDI) were measured using Malvern Zetasizer Nano90 (Westborough, Mass.). The samples were incubated in PBS at pH 7.4 for 2 h, and the measurements were conducted in a 1.0 mL quartz cuvette using a diode laser of 633 nm at 25° C. and a scattering angle was fixed at 90°. To evaluate their serum stability, nanoparticles were dispersed in 20% FBS PBS solution (pH 7.4) at a final concentration of 1 mg/mL. Nanoparticle sizes were measured at the predefined time points. Transmission electron microscopy (TEM) of nanoparticles was also performed using a FEI Technai G2 20 Twin TEM (Hillsboro, Oreg.).

[6] = pH-triggered DOX release, UV-Vis of supernatants after 2 h incubation; type: physicochemical
Description: To confirm the pH-triggered drug release property, BSA NPs, DOX-ab-BSA NPs and DOX-hyd-BSA NPs were incubated in PBS at pH 7.4, 6.5 and 5.0 for 2 h, respectively. After centrifugation, the supernatants were collected to determine DOX concentrations using a UV-Vis spectrometer.

[7] = tested on: LPS-challenged mice; assay: Survival study in sepsis mouse model (i.p. LPS 50 mg/kg); type: in vivo; conditions: 72 h, 0.2 mg/kg DOX i.v. 4 h after i.p. LPS 50 mg/kg
Description: Adult CD-1 mice were i.p. injected with LPS (50 mg/kg) in the mouse sepsis model. 4 hours later, the LPS-challenged mice were grouped randomly (10 mice per group) and treated (i.v.) with PBS, free DOX (0.2 mg/kg), and prodrug DOX-hyd-BSA NPs (equal to 0.2 mg/kg of free DOX). The animals were monitored every 6 h in the first 12 h followed by monitoring mice every 12 h in 72 h.

[8] = In vitro drug release profile (dialysis, 37 C); type: physicochemical
Description: Release profiles of DOX from NPs were studied using dialysis method at 37° C.(33) Briefly, 3 mg of NPs was dispersed in 3 mL (Ve) PBS at different pH, and then was placed in a dialysis bag (MWCO 3500 Da). The dialysis bag was immersed in 47 mL PBS (pH 7.4, 6.5 or 5.0) in a beaker. The beaker was then placed in a 37° C. water bath and stirred at 110 rpm. The samples were drawn at desired time intervals and the drug concentration was measured using UV-Vis absorption. The experiments were carried out in triplicate at each pH value. The accumulative drug release percent (Er) was calculated based on equation (1).
where, mdrug represents the amount of DOX in NPs, V0 was the whole volume of release media (V0=50 mL), Ci represents the concentration of DOX in the ith sample.

[9] = first 16 h after LPS challenge, vs PBS

## DOX-hyd-BSA NPs
[1]; 16 h and 72 h post-LPS challenge, vs PBS
  inflammation in other organs (MPO, TNF-α, IL-6, IL-1β): significantly decreased inflammation in other organs
[1]; 72 h after LPS challenge
  neutrophil number and cytokine contents: resumed to their levels as in healthy mice
[1]; [9]
  cytokines in blood and lung BALF: decreased accordingly
  neutrophils in blood and lung BALF: dramatically decreased
[1]; neutrophil counts compared with healthy mice
  neutrophil production in the bone marrow: did not impair neutrophil production in the bone marrow
[2]
  DOX uptake by cells: taken up efficiently
[3]
  uptake by human neutrophils: can be efficiently taken up
[4]
  tissue or cellular damage in H&E sections of heart, liver, spleen, lung, kidney: did not show any noticeable signs of tissue or cellular damage
[5]
  serum stability (aggregation, diameter change): no aggregation (diameter change) was observed
[6]; pH 5.0 and 6.5, 2 h incubation in PBS
  DOX absorption at 480 nm in supernatant: Absorption of DOX molecules at 480 nm was observed
[6]; pH 7.4, 2 h incubation in PBS
  DOX in supernatant: did not observe DOX in the supernatant
[7]
  mouse survival: 70%
[8]; pH 5.0, first 10 h
  cumulative DOX release: 80%
[8]; pH 5, in 30 h
  cumulative DOX release: completely released DOX
[8]; pH 6.5, first 10 h
  cumulative DOX release: 60%
